Test system: GII.4 Sydney (SYV) norovirus VLP, assembled capsid protein VP1 (Human norovirus GII.4 Sydney)
Test: ELASA (plate binding)
Settings: VLP heated 75 C 1 min (partly denatured); 1 uM aptamer; ELASA: VLPs on polystyrene plate, blocked with 5% skim milk in PBS + 0.05% Tween 20 with 10 nM unrelated primers (2 h, room temperature), 1 uM biotinylated …

Question: “AGTATACGTATTACCTGCAGCTGGGAAGAGGTCCGGTAAATGCAGGGTCAGCCCGGAGAGCGATATCTCGGAGATCTTGC [M6-2]” was tested. Which binding signal (% of signal with untreated VLP) did it give?
Answer: The binding signal (% of signal with untreated VLP) was 20.1.
